Measurements reported in the RNAGym collection of RNA variant scans (doi:10.1073/pnas.2313332121).
Variants at the floor of the assay were thinned out.

B1: TPR 5TU (parent)
chain: GGAUCUUCUCGAUCUAACAAAAAAGACAAAUCUGCCACAAAGCUUGAGAGCAUCUUCGGAUGCAGAGGCGGCAGCCUUCGGUGGCGCGAUAGCGCCAACGUUCUCAACUAUGACACGCAAAACGCGUGCUCCGUUGAAUGGAGUUUAUCAUG

Variants of: B1
Assay: polymerase ribozyme fitness, log enrichment relative to wild type (log ratio); higher = more active; in vitro selection for triplet polymerase activity
In short: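 Mutant libraries were PCR-built and transcribed for each subunit of a heterodimeric triplet polymerase ribozyme and selected for one round in triplicate at −7 °C, frozen, before gel excision of extended constructs and streptavidin-bead capture. Input and output libraries were Illumina-sequenced, keeping genotypes with ≥10 input reads and ≥1 read per output. Fitness is a logarithmic ratio of genotype to wild-type enrichment, in base 2, using inverse-variance-weighted replicate averages.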

Variant	polymerase ribozyme fitness (log ratio)
C14G A52C C85A	≤ -4.2
U13G A19U A22C G46C G81C C95U G140C	≤ -4.2
C14G A23U A52C G84A C118U	≤ -4.2
C14U G59A C87U U90G C114A	≤ -4.2
C14G G34U A41C U77G G83U A115G U135G	≤ -4.2
C14A C32U C85U A98U U111G U139G U151A	-4.14
U13G C14A C72U G83A G117U	-2.88
C14G A17C A23C A40C G88A G94U C123G U134G G140A	≤ -4.2
C14U A52G U53G G74A A91C C96U G141U	≤ -4.2
C14U U44A	≤ -4.2
C14A G25U U82G G94U	≤ -4.2
U15A A20C G74C G81A C105G U135G U145G U148A	≤ -4.2
C14A G48C U56A C96A	-3.68
U13G C93A G141U	-4.01
U13C A41U U55A C96U C118A	-2.88
U15C C99G	-0.377
C14U A22G A39G G71A C93U G152C	≤ -4.2
U13C A22G U61A G83A	-3.83
C14G C87G	≤ -4.2
C14G C87U	-2.29
C14G A19G C43U G86A U104G C108G A122C	≤ -4.2
C14U A52U C85G G133C A142G	≤ -4.2
U13C G62C C99A U148G	≤ -4.2
U13G A23C C32U G59U C85G C105G A106U C116G U134A	≤ -4.2

Variant	polymerase ribozyme fitness (log ratio)
C14U U45G C87A C95U C103A	-4.17
C14G G48U C76U U77G A91C C99G C105G A122G C123G C129G U135G	≤ -4.2
U13G A40C A73G C85U	-2.84
C14U G25U U31G C43A A47C G62A A91G G94C U104C A138U G140C U145G	≤ -4.2
C14A A21C A64G C75U C76G C85U C105U A120U	≤ -4.2
C14G C54A C57A G62A U78A C85U G88A A115U	≤ -4.2
U15C G92A C99G U148A	≤ -4.2
C14U A30G G81A C85G A97G G133A	≤ -4.2
C14G U15C C76A C85G	-3.78
U13C U44A C87A G126U	≤ -4.2
U15A C75G C95U A142C	≤ -4.2
C14U C85A G141C	-2.63
U15C A22C C118A U144A	-0.0778
U15A A22C A40C A60G	0.68
C14G A26G C27A U44A U45C C72A U151G	≤ -4.2
U15C C54U	0.268
C14U A49G U53A C85U C116A	-3.48
U13G A23U C35A C93U C99U U127G	≤ -4.2
U15A C18G U146G	-0.119
C14G U53A G84C G92U C95A A107G A119U	≤ -4.2
C14U U78C	-2.43
C14G G34A C85A	≤ -4.2
C14G G50U C87U C96A	-4.12
C14G U55C C57A A66G G81A C85U	≤ -4.2

Variant	polymerase ribozyme fitness (log ratio)
C14G C96G	-2.81
C14G A24G A26G A39C A66C C105U A107U	≤ -4.2
U13G A17U G88A C96G	≤ -4.2
U13G G83C C125G G133A U145G	≤ -4.2
C14A G59U G94U C125G U134A U151G	≤ -4.2
U15C U44C U61A G70U G80A C96U	≤ -4.2
C14A A23U U31C U44A A73G G83C A110G	≤ -4.2
C14G C32G C76A U139A	≤ -4.2
C14U A26G C38U U61G C87A U90A	-3.51
U13G G42C A49U G65A G71A G92A	-3.74
U13C C51U G59C G92U A115G G143C	-3.61
C14G U53A G94A G124U	-3.37
C14G U53A	-2.66
U13G C36U A52G G70A G84U	-0.614
C14U A30G G48A C76G A98U U102G	≤ -4.2
U15A G46U A47C C72U G88U G94A C95G A97G C108G A115G	≤ -4.2
U15A A73U C76G C118A A138C G141C	≤ -4.2
C14U C36G G71U A122U G124U	≤ -4.2
U13C C96A C99U	-1.75
C14A C54G G62A G86U U101G G141U	≤ -4.2
C14U A19G U31C A39C G50A A66U G68U C93G	≤ -4.2
C14U C123G	-1.9
C14G A22G G94A C118G A150C	≤ -4.2
C14G U44G U53A C75A U90C C93U	≤ -4.2

Variant	polymerase ribozyme fitness (log ratio)
C14U A19C U45A G84A C96A U109C	≤ -4.2
C14U G92C	-1.88
C14G C35A G74U G86A A120U	≤ -4.2
C14U A66U U78C	≤ -4.2
C14G C54U G68C C87U	≤ -4.2
C14U G46A U55G	-3.69
U15G A16U C85U C118U	-1.42
C14U U146G	-1.34
U15A A40G U55A A60U C114A	≤ -4.2
U13G A106C	-1.83
U13G A20C C27U U61A C99A	≤ -4.2
C14A G58C C93U	-2.75
C14U A41U G46A A52U C63G C93U C105G	≤ -4.2
C14U C18A U61C U139G	-4.16
C14G A30G A52C C72A C95G C103G	≤ -4.2
U13G A47G G48A A89C C93U C99G	≤ -4.2
U15A A20C C76U U82G A91U C118A G140C	≤ -4.2
U13C C18G C35G A40G C63A A91U C118U C132U A150U	≤ -4.2
C14A A37U G84A C125U	-3.95
C14U C93U	-2.62
C14U C27G C35G A39U U82A G86A A97U	≤ -4.2
U15A A30G U78G C87G	≤ -4.2
U13G A16U U33G G50C G81C G143A	≤ -4.2
C14G U15C C38U C114U	-2.11

Variant	polymerase ribozyme fitness (log ratio)
C14G G34A G128A G141C	-3.91
U13G G42A A49G U56A C57A G80A	≤ -4.2
C14U U15C A16U A19G A30U A39C G48U G50A G70U A113U G141U	≤ -4.2
C14U G84U	-3.29
U13G C32G A41C G141U	≤ -4.2
U13G G84U U135A G136A	-2.14
C14U G92A C116G	-3.86
U15A G84U C95U G143C	-4.14
C14U G42A G59A C87A	≤ -4.2
C14G A30C C35A G48A C87G U102A	≤ -4.2
U13G A52G G59C C95A C118U	-2.5
U13G C32U G88C A97U	≤ -4.2
U15A A91G G100C	≤ -4.2
C14G G80A	-1.72
C14U G86U	-3.21
U13G A23U A26C C36A C57A G86U C95U A121C	≤ -4.2
C14U C35U G59C A60G C85U U104A A120U G128U A147G	≤ -4.2
U15A U111C G112U	-3.91
C14U U45A G50C C57A A91U C103G C105A	≤ -4.2
U13C C43A A73C G92U	≤ -4.2
C14A U55G U56A G92U A150G	-4.11
U13G A23U A37C G83A C96U	≤ -4.2
C14G A97C A110U A120G U134A	≤ -4.2
U13C G59U C93G A138G	≤ -4.2

Variant	polymerase ribozyme fitness (log ratio)
U15A U56A G70A	-4.2
C14U U53A	-2.41
U15A U55A U56A C69U C79U G86A A91U A106C A121G C125U A142C	≤ -4.2
U13G C18U C27U C95U	-3.43
C14G C75G U77A C87A A137U G143U	≤ -4.2
C14U A19U G84A	-0.945
U13G U44A G68C G88A C95A U144A	≤ -4.2
U13C A121U A142C	-2.44
C14A C105U	-0.869
C14U A52G G62A C96G U104G	≤ -4.2
U15A A24G A98G C99A	≤ -4.2
C14A C54U C118U G136U	-4.12
C14G G50A C54U C93A U139A	≤ -4.2
C14G U45G G46A C54U C72A U139G A142U	≤ -4.2
C14A G141C	-1.87
C14A G141U	-0.0158
C14G A26U A28G C35A U56C C57U U90G	≤ -4.2
C14A A26U U77G G84U A115C A147G U148G	≤ -4.2
U15A C76U C99G C105G	≤ -4.2
C14G C69A C96U C118U	≤ -4.2
U15A A49C U53A G86U	≤ -4.2
U13C A52G G84A	-1.1
C14G G50U U56G G59C C108U	≤ -4.2
U15C U56A G94A A142G	-0.297

Variant	polymerase ribozyme fitness (log ratio)
C14U G65C C87G C96U C132U U139G	≤ -4.2
U15A G84A C93A U134G	-4.09
C14U C51U U56A A119G	-2.23
U13G A47U G50A C51U U55A G81C A137U C149A	≤ -4.2
C14U G81U G84U	-2.93
U13C G88U	-3.96
U13C C14G G88A	-4
C14G U56A A60C G88C C95U U139G G140A	≤ -4.2
U15A A26G U77G C95A	≤ -4.2
C14A A49C C69A	≤ -4.2
C14A A41C C51U A64U C76A A89G C95A G128A A150U	≤ -4.2
C14U A16U G81A A147U	-1.35
U15C C54A C57G C87U A150G	-3.99
C14A U55A G68A A107U	≤ -4.2
C14U G34A G84U G140U	≤ -4.2
C14G A89U	-2.66
U13G C14G C18U A22C C57U G59A C75A C93A G143U U146A G152U	≤ -4.2
C14A A41C C85A C132U U145A	≤ -4.2
U15C A40U G59C C85U	1.15
C14U A41U C69A C85U	≤ -4.2
C14G A60G	-2.34
C14G A17C	-2.89
C14G A23U G46U A66G G70A A91G C116G C131G	≤ -4.2
